The values that follow come from US8889621B2, “Inhibiting binding of FGF23 to the binary FGFR-Klotho complex for the treatment of hypophosphatemia” (New York University, priority 2009, dated 2014).

“Also recorded” adds a separate entry of the source.

The target of one experiment is T1, βKlotho-FGF19 (Mus musculus, UniProt Q99N32).
T1 construct: the ectodomain of murine βKlotho (F53 to L995) was expressed in HEK293 cells; FLAG (C); made in house; host or cells: HEK293 (βKlotho ectodomain); E. coli (FGF19)
T1 sequence (Q99N32 53-995): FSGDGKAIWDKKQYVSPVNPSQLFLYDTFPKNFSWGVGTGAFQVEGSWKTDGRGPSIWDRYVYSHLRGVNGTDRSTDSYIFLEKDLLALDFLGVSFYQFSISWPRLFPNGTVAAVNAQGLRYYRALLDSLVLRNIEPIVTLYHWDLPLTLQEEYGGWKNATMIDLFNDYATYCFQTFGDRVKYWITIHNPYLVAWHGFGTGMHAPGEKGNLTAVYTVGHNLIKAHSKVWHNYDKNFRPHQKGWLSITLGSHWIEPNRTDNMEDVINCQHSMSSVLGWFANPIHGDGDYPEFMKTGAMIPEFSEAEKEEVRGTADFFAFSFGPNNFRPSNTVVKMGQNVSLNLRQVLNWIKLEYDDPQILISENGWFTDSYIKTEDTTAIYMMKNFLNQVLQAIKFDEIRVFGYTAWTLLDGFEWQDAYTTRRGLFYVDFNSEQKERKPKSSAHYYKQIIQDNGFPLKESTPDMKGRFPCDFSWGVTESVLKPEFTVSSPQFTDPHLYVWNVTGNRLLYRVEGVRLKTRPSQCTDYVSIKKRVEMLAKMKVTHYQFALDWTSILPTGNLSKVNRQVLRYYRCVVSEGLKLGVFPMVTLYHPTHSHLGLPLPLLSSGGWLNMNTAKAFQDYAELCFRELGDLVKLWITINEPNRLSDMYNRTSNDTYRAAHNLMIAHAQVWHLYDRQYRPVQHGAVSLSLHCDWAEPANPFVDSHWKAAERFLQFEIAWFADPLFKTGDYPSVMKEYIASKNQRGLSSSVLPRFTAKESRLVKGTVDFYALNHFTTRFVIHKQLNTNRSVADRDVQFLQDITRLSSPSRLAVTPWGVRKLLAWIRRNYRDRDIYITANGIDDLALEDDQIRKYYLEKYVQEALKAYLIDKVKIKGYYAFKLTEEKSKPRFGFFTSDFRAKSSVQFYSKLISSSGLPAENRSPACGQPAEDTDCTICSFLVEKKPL
As to the kind of experiment: SPR specificity: βKlotho binding to immobilized FGF19^23-216. Also noted: species or system murine βKlotho, human FGF19. As to conditions: molar ratio of 2:1 to βKlotho.

In another experiment the target is T2, βKlotho-FGF21 (Mus musculus, UniProt Q99N32).
T2 construct: the ectodomain of murine βKlotho (F53 to L995) was expressed in HEK293 cells; FLAG (C); made in house; host or cells: HEK293 (βKlotho ectodomain); E. coli (FGF21)
T2 sequence (Q99N32 53-995): T1 sequence (Q99N32 53-995)
As to the kind of experiment: SPR specificity: βKlotho binding to immobilized FGF21^29-209. Also noted: species or system murine βKlotho, human FGF21. To be noted: molar ratio of 2:1 to βKlotho.

The next experiment concerns the target T3, FGFR1c-βKlotho-FGF19 (UniProt P11362+Q99N32).
T3 construct: the ectodomain of murine βKlotho (F53 to L995) was expressed in HEK293 cells; FLAG (C); made in house; host or cells: E. coli (FGFR1c, FGF19); HEK293 (βKlotho ectodomain)
T3 sequence (P11362 142-365): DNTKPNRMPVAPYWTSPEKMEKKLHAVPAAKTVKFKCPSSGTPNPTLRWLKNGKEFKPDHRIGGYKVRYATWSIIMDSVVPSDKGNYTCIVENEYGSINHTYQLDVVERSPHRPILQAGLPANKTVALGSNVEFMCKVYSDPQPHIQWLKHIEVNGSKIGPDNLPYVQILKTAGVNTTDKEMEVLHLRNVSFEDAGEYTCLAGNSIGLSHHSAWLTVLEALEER
T3 sequence (Q99N32 53-995): T1 sequence (Q99N32 53-995)
In words: SPR specificity: FGFR1c-βKlotho binding to immobilized FGF19^23-216. As to conditions: 10-fold molar excess over FGFR1c-βKlotho. More on the design: species or system human FGFR1c, murine βKlotho, human FGF19.

For a further experiment, the target named is T4, FGFR1c-βKlotho-FGF21 (UniProt P11362+Q99N32).
T4 construct: the ectodomain of murine βKlotho (F53 to L995) was expressed in HEK293 cells; FLAG (C); made in house; host or cells: E. coli (FGFR1c, FGF21); HEK293 (βKlotho ectodomain)
T4 sequence (P11362 142-365): T3 sequence (P11362 142-365)
T4 sequence (Q99N32 53-995): T1 sequence (Q99N32 53-995)
In words: SPR specificity: FGFR1c-βKlotho binding to immobilized FGF21^29-209. Also noted: species or system human FGFR1c, murine βKlotho, human FGF21. As to conditions: 10-fold molar excess over FGFR1c-βKlotho.

For the next experiment, the target named is T5, FGFR1c ectodomain (Homo sapiens, UniProt P11362).
T5 construct: made in house; host or cells: E. coli
T5 sequence (P11362 142-365): T3 sequence (P11362 142-365)
In words: SPR: FGFR1c ectodomain passed over immobilized FGF23. It counts as binding. The procedure:
Surface plasmon resonance (SPR) spectroscopy experiments were performed on a Biacore 2000 instrument (Biacore AB), and FGF23-FGFR1c-Klotho interactions were studied at 25° C. in HBS-EP buffer (10 mM HEPES-NaOH, pH 7.4, 150 mM NaCl, 3 mM EDTA, 0.005% (v/v) polysorbate 20). Proteins were immobilized by amine coupling on flow channels of research grade CM5 chips (Biacore AB). Proteins were injected over a CM5 chip at a flow rate of 50 μl min^−1, and at the end of each protein injection (180 s), HBS-EP buffer (50 μl min^−1) was flowed over the chip to monitor dissociation for 180 s. The chip surface was then regenerated by injecting 50 μl of 2.0 M NaCl in 10 mM sodium acetate, pH 4.5. To control for nonspecific binding in experiments where Klotho ectodomain was immobilized on the chip, β-glucuronidase was coupled to the control flow channel of the chip (˜26-32 fmole/mm^2). […] The data were processed with BiaEvaluation software (Biacore AB). For each protein injection over a Klotho chip, the nonspecific responses from the β-glucuronidase control flow channel were subtracted from the responses recorded for the Klotho flow channel. Similarly, for each protein injection over a FGF chip, the nonspecific responses from the FHF1B control flow channel were subtracted from the responses recorded for the FGF flow channel. […]
On the technique in general: SPR reads the build-up and loss of mass on a sensor chip optically.

B1: FGF23^180-251: 72-amino acid C-terminal tail of human FGF23 (S180 to I251), expressed in E. coli (protein, listed as Homo sapiens)
chain: SAEDDSERDPLNVLKPRARMTPAPASCSQELPSAEDNSPMASDPLGVVRGGRVNTHAGGTGPEGCRPFAKFI
Turning to B1, the “inhibition of βKlotho binding to immobilized FGF19” value with βKlotho-FGF19 is recorded as “failed to inhibit; also recorded: no inhibition”. The “inhibition of βKlotho binding to immobilized FGF21” value in the experiment with βKlotho-FGF21 is “failed to inhibit; also recorded: no inhibition”. In addition, the “inhibition of FGFR1c-βKlotho binding to immobilized FGF19” value with FGFR1c-βKlotho-FGF19 was “did not affect; also recorded: no inhibition”. Besides, the “inhibition of FGFR1c-βKlotho binding to immobilized FGF21” value with FGFR1c-βKlotho-FGF21 is on record as “did not affect; also recorded: no inhibition”.

B2: FGF23^28-251: human FGF23 (A28 to I251), bioactive full-length ligand expressed in E. coli (protein, listed as Homo sapiens)
chain: ASPLLGSSWGGLIHLYTATARNSYHLQIHKNGHVDGAPHQTIYSALMIRSEDAGFVVITGVMSRRYLCMDFRGNIFGSHYFDPENCRFQHQTLENGYDVYHSPQYHFLVSLGRAKRAFLPGMNPPPYSQFLSRRNEIPLIHFNTPIPRRHTRSAEDDSERDPLNVLKPRARMTPAPASCSQELPSAEDNSPMASDPLGVVRGGRVNTHAGGTGPEGCRPFAKFI
Regarding B2, the “binding of FGF23 to FGFR1c ectodomain alone” value in the experiment with FGFR1c ectodomain was “poor binding”.
